Assay results: US20260242839A1, “GLYCOSIDE PRODUCT BIOSYNTHESIS AND RECOVERY” (Manus Bio Inc., priority 2023, published 2026)
Substitutions are numbered along the chain they refer to. In names and notes the source's numbering stands.

B1: SEQ ID NO: 77: SgUGT94-289-3.2 (Siraitia grosvenorii) (protein)
chain: MADAAQQGDTTTILMLPWLGYGHLSAFLELAKSLSRRNFHIYFCSTSVNLDAIKPKLPSSFSDSIQFVELHLPSSPEFPPHLHTTNGLPPTLMPALHQAFSMAAQHFESILQTLAPHLLIYDSLQPWAPRVASSLKIPAINFNTTGVFVISQGLHPIHYPHSKFPFSEFVLHNHWKAMYSTADGASTERTRKRGEAFLYCLHASCSVILINSFRELEGKYMDYLSVLLNKKVVPVGPLVYEPNQDGEDEGYSSIKNWLDKKEPSSTVFVSFGSEYFPSKEEMEEIAHGLEASEVNFIWVVRFPQGDNTSGIEDALPKGFLERAGERGMVVKGWAPQAKILKHWSTGGFVSHCGWNSVMESMMFGVPIIGVPMHVDQPFNAGLVEEAGVGVEAKRDPDGKIQRDEVAKLIKEVVVEKTREDVRKKAREMSEILRSKGEEKFDEMVAEISLLLKI
B2: SEQ ID NO: 76: CeUGT_1,6.2 (Coffea eugenioides) (protein, listed as Coffea sp.)
chain: MAENHATFNVLMLPWLAHGHVSPYLELAKKLTARNFNVYLCSSPATLSSVRSKLTEKFSQSIHLVELHLPKLPELPAEYHTTNGLPPHLMPTLKDAFDMAKPNFCNVLKSLKPDLLIYDLLQPWAPEAASAFNIPAVVFISSSATMTSFGLHFFKNPGTKYPYGNAIFYRDYESVFVENLTRRDRDTYRVINCMERSSKIILIKGFNEIEGKYFDYFSCLTGKKVVPVGPLVQDPVLDDEDCEIMQWLNKKEKVSTVFVSFGSEYFLSKKDMEEIAHGLELSNVDFIWVVRFPKGENIVIEETLPKGFFERVGERGLVVNGWAPQAKILTHPNVGGFVSHCGWNSVMESMKFGLPIIAMPMHLDQPINARLIEEVGAGVEVLRDSKGKLHRERMAETINKVMKEASGESVRKKARELQEKMDLKGDEEIDDVVKELVQLCATKNKRNGLHYY
B3: SEQ ID NO: 39: SgUGT94-289-1 (Siraitia grosvenorii) (protein)
chain: MDAQRGHTTTILMFPWLGYGHLSAFLELAKSLSRRNFHIYFCSTSVNLDAIKPKLPSSSSSDSIQLVELCLPSSPDQLPPHLHTTNALPPHLMPTLHQAFSMAAQHFAAILHTLAPHLLIYDSFQPWAPQLASSLNIPAINFNTTGASVLTRMLHATHYPSSKFPISEFVLHDYWKAMYSAAGGAVTKKDHKIGETLANCLHASCSVILINSFRELEEKYMDYLSVLLNKKVVPVGPLVYEPNQDGEDEGYSSIKNWLDKKEPSSTVFVSFGSEYFPSKEEMEEIAHGLEASEVHFIWVVRFPQGDNTSAIEDALPKGFLERVGERGMVVKGWAPQAKILKHWSTGGFVSHCGWNSVMESMMFGVPIIGVPMHLDQPFNAGLAEEAGVGVEAKRDPDGKIQRDEVAKLIKEVVVEKTREDVRKKAREMSEILRSKGEEKMDEMVAAISLFLKI
B4: SEQ ID NO: 75: CeUGT_1,6 (Coffea eugenioides) (protein, listed as Coffea sp.)
chain: MAENHATFNVLMLPWLAHGHVSPYLELAKKLTARNFNVYLCSSPATLSSVRSKLTEKFSQSIHLVELHLPKLPELPAEYHTTNGLPPHLMPTLKDAFDMAEPNFCNVLKSLKPDLLIYDLLQPWAPEAASAFNIPAVVFISSSATMTSFGLHFFKNPGTKYPYGNTIFYRDYESVFVENLKRRDRDTYRVVNCMERSSKIILIKGFKEIEGKYFDYFSCLTGKKVVPVGPLVQDPVLDDEDCRIMQWLNKKEKGSTVFVSFGSEYFLSKEDMEEIAHGLELSNVDFIWVVRFPKGENIVIEETLPKGFFERVGERGLVVNGWAPQAKILTHPNVGGFVSHCGWNSVMESMKFGLPIIAMPMHLDQPINARLIEEVGAGVEVLRDSKGKLHRERMAETINKVTKEASGESVRKKARELQEKLELKGDEEIDDVVKELVQLCATKNKRNGLHYN
B5: SEQ ID NO: 78: OsJUGT_1,6 (Oryza sativa) (protein, listed as Oryza sativa)
chain: MAQAERERLRVLMFPWLAHGHINPYLELATRLTTTSSSQIDVVVHLVSTPVNLAAVAHRRTDRISLVELHLPELPGLPPALHTTKHLPPRLMPALKRACDLAAPAFGALLDELSPDVVLYDFIQPWAPLEAAARGVPAVHFSTCSAAATAFFLHFLDGGGGGGGRGAFPFEAISLGGAEEDARYTMLTCRDDGTALLPKGERLPLSFARSSEFVAVKTCVEIESKYMDYLSKLVGKEIIPCGPLLVDSGDVSAGSEADGVMRWLDGQEPGSVVLVSFGSEYFMTEKQLAEMARGLELSGAAFVWVVRFPQQSPDGDEDDHGAAAARAMPPGFAPARGLVVEGWAPQRRVLSHRSCGAFLTHCGWSSVMESMSAGVPMVALPLHIDQPVGANLAAELGVAARVRQERFGEFEAEEVARAVRAVMRGGEALRRRATELREVVARRDAECDEQIGALLHRMARLCGKGTGRAAQLGH
B6: SEQ ID NO: 79: PgUGT94_B1 (Panax ginseng) (protein)
chain: MADNQNGRISIALLPFLAHGHISPFFELAKQLAKRNCNVFLCSTPINLSSIKDKDSSASIKLVELHLPSSPDLPPHYHTTNGLPSHLMLPLRNAFETAGPTFSEILKTLNPDLLIYDFNPSWAPEIASSHNIPAVYFLTTAAASSSIGLHAFKNPGEKYPFPDFYDNSNITPEPPSADNMKLLHDFIACFERSCDIILIKSFRELEGKYIDLLSTLSDKTLVPVGPLVQDPMGHNEDPKTEQIINWLDKRAESTVVFVCFGSEYFLSNEELEEVAIGLEISTVNFIWAVRLIEGEKKGILPEGFVQRVGDRGLVVEGWAPQARILGHSSTGGFVSHCGWSSIAESMKFGVPVIAMARHLDQPLNGKLAAEVGVGMEVVRDENGKYKREGIAEVIRKVVVEKSGEVIRRKARELSEKMKEKGEQEIDRALEELVQICKKKKDEQ
modifications: Panax ginseng
B7: SEQ ID NO: 60: UGT_1,6 (Coffea Arabica) (protein, listed as Coffea arabica)
chain: MENHATFNVLMLPWLAHGHVSPYLELAKKLTARNFNVYLCSSPATLSSVRSKLTEKFSQSIHLVELHLPKLPELPAEYHTTNGLPPHLMPTLKDAFDMAKPNFCNVLKSLKPDLLIYDLLQPWAPEAASAFNIPAVVFISSSATMTSFGLHFFKNPGTKYPYGNAIFYRDYESVFVENLTRRDRDTYRVINCMERSSKIILIKGFNEIEGKYFDYFSCLTGKKVVPVGPLVQDPVLDDEDCRIMQWLNKKEKGSTVFVSFGSEYFLSKKDMEEIAHGLEVSNVDFIWVVRFPKGENIVIEETLPKGFFERVGERGLVVNGWAPQAKILTHPNVGGFVSHCGWNSVMESMKFGLPIIAMPMHLDQPINARLIEEVGAGVEVLRDSKGKLHRERMAETINKVMKEASGESVRKKARELQEKLELKGDEEIDDVVKELVQLCATKNKRNGLHYY
B8: SEQ ID NO: 29: OsUGT1-2 (Oryza sativa) (protein, listed as Oryza sativa)
chain: MDSGYSSSYAAAAGMHVVICPWLAFGHLLPCLDLAQRLASRGHRVSFVSTPRNISRLPPVRPALAPLVAFVALPLPRVEGLPDGAESTNDVPHDRPDMVELHRRAFDGLAAPFSEFLGTACADWVIVDVFHHWAAAAALEHKVPCAMMLLGSAHMIASIADRRLERAETESPAAAGQGRPAAAPTFEVARMKLIRTKGSSGMSLAERFSLTLSRSSLVVGRSCVEFEPETVPLLSTLRGKPITFLGLMPPLHEGRREDGEDATVRWLDAQPAKSVVYVALGSEVPLGVEKVHELALGLELAGTRFLWALRKPTGVSDADLLPAGFEERTRGRGVVATRWVPQMSILAHAAVGAFLTHCGWNSTIEGLMFGHPLIMLPIFGDQGPNARLIEAKNAGLQVARNDGDGSFDREGVAAAIRAVAVEEESSKVFQAKAKKLQEIVADMACHERYIDGFIQQLRSYKD
B9: S266R: mutation to UGT enzyme of SEQ ID NO: 14 (protein)
chain: MATKNSSGMSLAERFWLTLSRSSLVVGRSCVEFEPETVPLLSTLRGKPITFLGLMPPLHEGRREDGEDATVRWLDAQPAKSVVYVALGSEVPLGVEKVHELALGLELAGTRFLWALRKPTGVSDADLLPAGFEERTRGRGVVATRWVPQMSILAHAAVGAFLTHCGWNSTIEGLMFGHPLIMLPITGDQGPNARLIEAKNAGLQVARNDGDGSFDREGVAAAIRAVAVEEESSKVFQAKAKKLQEIVADMACHERYIDGFIQQLRRYKDDSGYSSSYAAAAGMHVVICPWLAFGHLLPCLDLAQRLASRGHRVSFVSTPRNISRLPPVRPALAPLVAFVALPLPRVEGLPDGAESTNDVPHDRPDMVELHRRAFDGLAAPFSEFLGTACADWVIVDSFHHWAAAAALEHKVPCAMMLLGSAEMIASIADERLEHAETESPAAAGQGRPAAAPTFEVARMKLIR
B10: P56A: mutation to UGT enzyme of SEQ ID NO: 14 (protein)
chain: B9 chain with P56A, R266S

These molecules were tested on Mog. IIE or Mog. IE (assay: branched glycosylation reactions by cells expressing UGT enzymes). Conditions: Mog. IIE or Mog. IE fed; 37° C., 48 hr; LC-MS/MS.
Assay type: cell-based, E. coli
Experimental: Mog. IIE or Mog. IE was fed to cells expressing various UGT enzymes. Reactions were incubated at 37° C. for 48 hr. Products were quantified by LC-MS/MS with authentic standards of each compound. “Indirect” evidence means that consumption of substrate was observed.
In the case of B1, the “C3 1-2” value is reported as “No”, the “C3 1-6” value is reported as “Yes” and the “C24 1-2” value is reported as “No”. The “C24 1-6” value was “Yes”.
In the case of B2, the “C3 1-2” value is reported as “No”, the “C3 1-6” value is reported as “Yes” and the “C24 1-2” value is reported as “No”. The “C24 1-6” value was “Yes”.
For B3, the “C3 1-2” value was “No”, the “C3 1-6” value was “Yes” and the “C24 1-2” value was “Yes”. For the same molecule, the “C24 1-6” value was “Yes”.
With B4 the “C3 1-2” value was “Yes”, the “C3 1-6” value was “Yes” and the “C24 1-2” value was “Yes”. The “C24 1-6” value was “Yes”.
For B5, the “C3 1-2” value was “No”, the “C3 1-6” value was “No” and the “C24 1-2” value was “Yes”. The “C24 1-6” value was “No”.
In the case of B6, the “C3 1-2” value is reported as “No”, the “C3 1-6” value is reported as “No” and the “C24 1-2” value is reported as “No”. For the same molecule, the “C24 1-6” value was “Yes”.
B7 was tested, and the “C3 1-2” value was “No”, the “C3 1-6” value was “Yes” and the “C24 1-2” value was “Yes”. For the same molecule, the “C24 1-6” value was “Yes”.
B8 was tested, and the “C3 1-2” value was “No”, the “C3 1-6” value was “No” and the “C24 1-2” value was “No”. For the same molecule, the “C24 1-6” value was “Yes”.

The molecules below were run on steviol glycoside (assay: steviol glycoside bioconversion by E. coli expressing individual mutations of UGT SEQ ID NO: 14). Conditions: fold improvement of % conversion vs parent UGT SEQ ID NO: 14; stevia leaf extract and glucose fed; 37° C., 48 hr.
Assay type: cell-based
Summary of the method: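 E. coli strains expressing single mutants of the parent UGT were fed stevia leaf extract and glucose and incubated at 37 °C for 48 hr. Steviol glycoside conversion was quantified by reverse-phase LC-DAD. Fold improvement is relative to % conversion by the parent enzyme.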
In the case of B9, the “FI %Stevioside→rebE” value is reported as 1.4 and the “FI %rebA→rebD” value is reported as 1.3.
For B10, the “FI %Stevioside→rebE” value was 1.5 and the “FI %rebA→rebD” value was 1.3.
